Results as given in PMC7213743, “ArdC, a ssDNA-binding protein with a metalloprotease domain, overpasses the recipient hsdRMS restriction system broadening conjugation host range”.

Assays:
ArdC [1] = biological target: T1, ArdC (Escherichia coli plasmid R388 …, UniProt Q6I6B2 22-318); experiment: EMSA; 0-1 uM ArdC, 50 nM DNA; preferred over dsDNA; EMSA: 50 mM NaCl, 25 mM Tris-HCl pH 7.5, 0.5 mM EDTA, room temperature 30 min, 50 nM DNA; 10% native PAGE in cold 1x TBE; conditions: protein: recombinant; label: 6FAM (5'); single strand
T1 sequence: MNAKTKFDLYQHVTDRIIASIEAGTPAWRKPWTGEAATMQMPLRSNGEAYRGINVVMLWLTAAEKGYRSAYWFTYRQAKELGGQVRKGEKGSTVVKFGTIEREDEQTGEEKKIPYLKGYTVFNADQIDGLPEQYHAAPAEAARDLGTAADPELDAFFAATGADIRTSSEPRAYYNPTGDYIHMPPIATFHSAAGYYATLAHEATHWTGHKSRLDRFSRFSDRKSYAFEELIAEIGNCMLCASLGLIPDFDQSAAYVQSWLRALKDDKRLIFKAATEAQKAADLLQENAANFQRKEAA

ArdC [2] = biological target: T1, ArdC; experiment: EMSA; 0-1 uM ArdC, 50 nM DNA; preferred over blunt duplex; EMSA: 50 mM NaCl, 25 mM Tris-HCl pH 7.5, 0.5 mM EDTA, room temperature 30 min, 50 nM DNA; 10% native PAGE in cold 1x TBE; conditions: protein: recombinant, label: 6FAM (5' of strand 1)

Binder: TACGCTCTTGGGCGCGCTGAATATGAGGTCAAGGCCGATGCGCTC (ssDNA) [Fluor-T87I2 (45 b ssDNA)]
- binding result (ArdC [1]): binds

B1: Fluor-T87I2 + Mid1 (partial duplex) (mixed)
DNA 1: TACGCTCTTGGGCGCGCTGAATATGAGGTCAAGGCCGATGCGCTC
DNA 2: GAGCGCATCGGCCTTGAC
- binding result (ArdC [2]; 18 bp duplex, 5' overhang 27 nt (strand 1)): binds

B2: Fluor-T87I2 + Mid2 (partial duplex) (mixed)
DNA 1: TACGCTCTTGGGCGCGCTGAATATGAGGTCAAGGCCGATGCGCTC
DNA 2: CTCATATTCAGCGCGCCCAAGAGCGTA
- binding result (ArdC [2]; 27 bp duplex, 3' overhang 18 nt (strand 1)): binds
